Data on one molecule can be found in publication PMC5389936 (The Journal of allergy and clinical immunology, 2016).

The experiment has as its target TSLP (M29-130), longer subunit of the PCSK-generated heterodimeric TSLP (human, UniProt Q969D9 29-130). Description: MALDI-TOF MS with and without DTT.

On to KVTTNKCLEQVSQLQGLWRRFNRPLLKQQ (peptide, UniProt Q969D9 131-159, looked up) [TSLP (131-159), shorter subunit of the truncated thymic stromal lymphopoietin], for which the binding result was “binds”.
